EP4658690A2 (dated 2025)

Target: T1, human CD180/MD-1 on HEK293 cells (human, UniProt Q99467 24-661; O95711 21-162)
T1 construct: whole, on cells; CD180 co-expressed with MD-1 on engineered HEK293 cells; also called HEK293 CD180/MD-1 cells; CD180/MD1 HEK293 cells
T1 sequence (looked up) 1: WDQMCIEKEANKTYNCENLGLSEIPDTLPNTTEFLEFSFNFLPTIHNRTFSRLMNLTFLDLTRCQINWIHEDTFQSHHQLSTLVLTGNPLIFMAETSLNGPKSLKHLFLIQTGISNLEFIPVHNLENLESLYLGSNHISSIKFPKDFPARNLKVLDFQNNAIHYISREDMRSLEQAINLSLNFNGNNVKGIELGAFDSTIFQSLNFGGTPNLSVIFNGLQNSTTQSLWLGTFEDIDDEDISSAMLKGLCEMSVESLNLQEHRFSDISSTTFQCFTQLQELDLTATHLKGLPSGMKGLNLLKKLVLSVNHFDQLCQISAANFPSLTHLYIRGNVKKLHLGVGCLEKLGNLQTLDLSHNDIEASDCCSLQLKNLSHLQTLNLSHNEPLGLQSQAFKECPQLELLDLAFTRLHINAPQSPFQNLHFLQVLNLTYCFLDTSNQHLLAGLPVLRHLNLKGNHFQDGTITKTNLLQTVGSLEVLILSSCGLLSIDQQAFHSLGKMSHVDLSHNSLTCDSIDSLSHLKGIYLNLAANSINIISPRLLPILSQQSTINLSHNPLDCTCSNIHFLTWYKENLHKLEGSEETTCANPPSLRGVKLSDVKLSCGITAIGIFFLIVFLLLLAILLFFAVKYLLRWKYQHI
T1 sequence (looked up) 2: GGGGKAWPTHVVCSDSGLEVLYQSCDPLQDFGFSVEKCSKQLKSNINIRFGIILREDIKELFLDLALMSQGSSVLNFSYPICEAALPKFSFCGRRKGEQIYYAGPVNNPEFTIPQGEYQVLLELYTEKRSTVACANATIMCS
Assay: flow cytometry (called cell-based ELISA) on HEK293 CD180/MD-1 cells, MFI fitted to a 4-parameter curve

EC50: 4 nM
B1: CHAMPmAb-014 (antibody, V domains shown)
VH: EVQLVESGGGLVQPGRSLRLSCTTSGFTFADYAMHWVRQTPGQGLEWVSGISWNGGTMGYADSVKGRFTISRDIAKNSLYLQMNSLRAEDTALYYCAKDIAYSRGYFQHWGQGTLVTVSS
VL: not shown
